Assay results taken from article PMC7560607, “Synapse type-specific proteomic dissection identifies IgSF8 as a hippocampal CA3 microcircuit organizer” (Nature Communications, 2020).
Each block holds one binder with its values, some of them ahead of it.

How the values were obtained:
[1] = biological target: T1, Tenascin-R, AP- or Fc-tagged (interactome library) ( (human or mouse sequence …, UniProt Q8BYI9 32-1358)); assay: BLI; BLItz, RT; TenR-Fc captured from EXPI293 conditioned medium on anti-human Fc sensors; purified IgSF8 34-0.133 µM in twofold dilution; 10 mM Hepes pH 7.4, 150 mM NaCl, 1 mM CaCl2, 0.2% Tween20, 1% BSA; KD from response vs concentration; Fc-only sensor subtracted; conditions: one partner purified
T1 construct: In the BLI experiment only the Fc fusion stood, captured from conditioned medium of EXPI293 cells on anti-human Fc sensors; also called TenR; TenR-Fc/AP; source: Expi293 cells, transfected, conditioned medium used without purification; not shown: Fc (human IgG1) in the Fc fusion, C-terminal, kept; alkaline phosphatase (human) in the AP fusion, C-terminal, kept
T1 sequence (looked up): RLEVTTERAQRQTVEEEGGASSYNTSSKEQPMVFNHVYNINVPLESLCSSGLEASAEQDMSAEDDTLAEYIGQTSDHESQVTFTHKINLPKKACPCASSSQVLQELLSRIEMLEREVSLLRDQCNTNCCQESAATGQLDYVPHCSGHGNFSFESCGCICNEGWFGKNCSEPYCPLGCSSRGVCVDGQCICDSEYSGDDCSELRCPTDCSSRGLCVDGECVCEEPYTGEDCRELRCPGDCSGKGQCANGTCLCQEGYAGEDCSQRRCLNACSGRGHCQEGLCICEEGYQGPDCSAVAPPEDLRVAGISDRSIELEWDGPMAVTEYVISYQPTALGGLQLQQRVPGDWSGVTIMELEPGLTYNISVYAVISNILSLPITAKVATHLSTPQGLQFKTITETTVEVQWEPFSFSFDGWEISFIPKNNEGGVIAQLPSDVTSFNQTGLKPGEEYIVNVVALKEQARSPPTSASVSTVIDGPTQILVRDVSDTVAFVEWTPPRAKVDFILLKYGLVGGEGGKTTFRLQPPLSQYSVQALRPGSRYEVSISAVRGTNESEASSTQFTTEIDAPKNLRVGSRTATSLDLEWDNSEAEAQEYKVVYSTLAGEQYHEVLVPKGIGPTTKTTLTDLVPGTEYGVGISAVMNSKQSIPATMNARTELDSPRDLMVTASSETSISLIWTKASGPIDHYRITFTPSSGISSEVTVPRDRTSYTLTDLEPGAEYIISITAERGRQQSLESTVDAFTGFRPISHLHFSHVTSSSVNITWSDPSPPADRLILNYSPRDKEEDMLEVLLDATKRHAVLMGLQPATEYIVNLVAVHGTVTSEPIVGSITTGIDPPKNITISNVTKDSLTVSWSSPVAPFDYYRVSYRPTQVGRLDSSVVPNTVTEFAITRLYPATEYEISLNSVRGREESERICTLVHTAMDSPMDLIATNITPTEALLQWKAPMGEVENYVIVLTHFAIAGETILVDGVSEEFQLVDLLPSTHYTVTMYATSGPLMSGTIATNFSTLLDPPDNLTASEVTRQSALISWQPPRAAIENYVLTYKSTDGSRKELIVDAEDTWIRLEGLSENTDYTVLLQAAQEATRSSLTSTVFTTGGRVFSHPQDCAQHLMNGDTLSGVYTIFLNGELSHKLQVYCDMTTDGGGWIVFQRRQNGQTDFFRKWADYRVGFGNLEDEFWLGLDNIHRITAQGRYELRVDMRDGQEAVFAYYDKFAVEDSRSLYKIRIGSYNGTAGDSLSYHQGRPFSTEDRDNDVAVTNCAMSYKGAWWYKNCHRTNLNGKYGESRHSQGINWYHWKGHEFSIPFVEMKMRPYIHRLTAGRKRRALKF

[2] = biological target: T2, TenR-Fc (Tenascin-R fused to the Fc region of human IgG1) ( (human or mouse sequences …, UniProt Q8BYI9 32-1358)); assay: BLI; BLItz, room temperature; TenR-Fc captured from conditioned medium on anti-human Fc biosensors; purified IgSF8 34-0.133 uM in twofold dilution; association in 10 mM Hepes pH 7.4, 150 mM NaCl, 1 mM CaCl2, 0.2% Tween20, 1% BSA; Fc-only sensor subtracted; binding response against concentration fitted as one site specific binding; conditions: one partner purified
T2 construct: Tenascin-R, secreted ECM protein; also called Tenascin-R-Fc; source: EXPI293 cells, transfected, conditioned medium; not shown: Fc (human IgG1), C-terminal, kept
T2 sequence (looked up): T1 sequence (looked up)

Kd [1]: ~1400 nM
B1: purified IgSF8 (BLI analyte) (natural protein)
chain: RQVHVPRGPLYRVAGTAVSISCNVSDYEGPAQQDFEWFMYRPEAPATSLGIVSTKDSQFSYAVFGPRVASGDLQVQRLKGDSVVLKIARLQAQDSGFYECYTPSTDTQYLGNYSAKVELRVLPDELQVSAAPPGPRGRQAATSPSRLTVHEGQELALGCLAQTKTKKHTHLSVSFGRAIPEAPVGRATLQEVVGLRSDMAVEAGAPYAERLASGELRLSKEGTDRYRMVVGGAQAGDSGTYHCTAAEWIQDPDGSWVQVAEKRAVLAHVDVQTLSSQLAVTVGPGERRIGPGEPLELLCNVSGALPPPGRHAAYSVGWEMAPAGAPGPGRLVAQLDTEGIGSLGPGYEDRHIAMEKVASRTYRLRLEAARPADAGTYRCLAKAYVRGSGTRLREAASARSRPLPVHVREEGVVLEAVAWLAGGTVYRGETASLLCNISVRGGPPGLRLAASWWVERPEEGELSSGPAQLVGGVGQDGVAELGVRPGGGPVSVELVGPRSHRLRLHGLGPEDEGIYHCAPSAWVQHADYSWYQAGSARSGPVTVYPYTHAVDT
modifications: Same molecule as Sm1. Secreted ectodomain, likely N-glycosylated; limits by convention (UniProt extracellular domain without the signal peptide).

Kd [2]: 1390 nM
B2: IgSF8 (purified IgSF8 protein used as analyte in biolayer interferometry) (receptor)
chain: B1 chain
modifications: Secreted ectodomain, likely N-glycosylated. Limits are the UniProt extracellular domain without the signal peptide. Mouse is inferred from the mouse IgSF8 cDNA (BC048387) and the mouse IgSF8-His used
